# B1: BBSome complex member BBS2 (Homo sapiens), Q9BXC9 (parent)
# chain: MLLPVFTLKLRHKISPRMVAIGRYDGTHPCLAAATQTGKVFIHNPHTRNQHVSASRVFQSPLESDVSLLSINQAVSCLTAGVLNPELGYDALLVGTQTNLLAYDVYNNSDLFYREVADGANAIVLGTLGDISSPLAIIGGNCALQGFNHEGSDLFWTVTGDNVNSLALCDFDGDGKKELLVGSEDFDIRVFKEDEIVAEMTETEIVTSLCPMYGSRFGYALSNGTVGVYDKTSRYWRIKSKNHAMSIHAFDLNSDGVNELITGWSNGKVDARSDRTGEVIFKDNFSSAIAGVVEGDYRMDGHIQLICCSVDGEIRGYLPGTAEMRGNLMDTSAEQDLIRELSQKKQNLLLELRNYEENAKAELASPLNEADGHRGIIPANTRLHTTLSVSLGNETQTAHTELRISTSNDTIIRAVLIFAEGIFTGESHVVHPSIHNLSSSICIPIVPPKDVPVDLHLKAFVGYRSSTQFHVFESTRQLPRFSMYALTSLDPASEPISYVNFTIAERAQRVVVWLGQNFLLPEDTHIQNAPFQVCFTSLRNGGHLHIKIKLSGEITINTDDIDLAGDIIQSMASFFAIEDLQVEADFPVYFEELRKVLVKVDEYHSVHQKLSADMADHSNLIRSLLVGAEDARLMRDMKTMKSRYMELYDLNRDLLNGYKIRCNNHTELLGNLKAVNQAIQRAGRLRVGKPKNQVITACRDAIRSNNINTLFKIMRVGTASS
# partner: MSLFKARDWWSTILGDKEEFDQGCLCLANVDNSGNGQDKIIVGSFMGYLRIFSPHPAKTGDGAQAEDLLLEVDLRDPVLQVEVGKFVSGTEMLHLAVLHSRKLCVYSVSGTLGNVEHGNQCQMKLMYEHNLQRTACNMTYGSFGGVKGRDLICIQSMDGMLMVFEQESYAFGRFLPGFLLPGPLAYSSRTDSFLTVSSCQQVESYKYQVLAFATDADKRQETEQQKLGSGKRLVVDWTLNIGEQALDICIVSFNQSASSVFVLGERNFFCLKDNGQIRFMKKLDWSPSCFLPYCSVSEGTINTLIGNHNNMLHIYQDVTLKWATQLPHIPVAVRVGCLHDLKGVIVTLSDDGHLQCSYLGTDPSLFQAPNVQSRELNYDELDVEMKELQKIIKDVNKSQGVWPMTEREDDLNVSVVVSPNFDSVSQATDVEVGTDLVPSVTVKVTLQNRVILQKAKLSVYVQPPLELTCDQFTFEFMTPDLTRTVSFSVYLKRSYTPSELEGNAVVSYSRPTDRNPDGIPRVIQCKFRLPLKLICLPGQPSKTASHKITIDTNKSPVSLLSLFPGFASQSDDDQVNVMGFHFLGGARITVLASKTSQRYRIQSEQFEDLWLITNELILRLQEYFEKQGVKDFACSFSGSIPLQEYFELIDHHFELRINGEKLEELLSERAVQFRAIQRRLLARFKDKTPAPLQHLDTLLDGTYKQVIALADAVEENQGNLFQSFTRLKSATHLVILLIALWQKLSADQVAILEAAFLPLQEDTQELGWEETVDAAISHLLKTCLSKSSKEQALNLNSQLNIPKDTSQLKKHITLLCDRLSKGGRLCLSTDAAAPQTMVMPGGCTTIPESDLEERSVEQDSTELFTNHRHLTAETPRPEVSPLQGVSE
# Variants of: B1
# Conditions: with pthb1_human BBS9, Q3SYG4
row,Variant,effect of a mutation on the interaction
1,K344A,with no effect
2,K691A,with no effect
3,C698K,with no effect
4,K345A,with no effect
5,I546E,disrupting interaction strength
6,I660E,with no effect
7,S405P,disrupting interaction strength
8,S405K,with no effect
9,T487M,disrupting interaction strength
10,H470K,with no effect
11,E473A,with no effect
12,G657K,with no effect
13,G657A,with no effect
14,I441K,with no effect
15,N671A,with no effect
16,Q335E,with no effect
17,Q335A,with no effect
18,M571K,with no effect
19,G670K,with no effect
20,N408K,with no effect
21,R635A,with no effect
22,R635E,with no effect
23,L538A,with no effect

row,Variant,effect of a mutation on the interaction
1,S618K,with no effect
2,I434K,with no effect
3,N528E,with no effect
4,S427K,with no effect
5,T502E,with no effect
6,S488E,with no effect
7,A361K,with no effect
8,D636E,with no effect
9,L437A,with no effect
10,L437E,with no effect
11,L668A,with no effect
12,P491K,with no effect
13,Y498K,with no effect
14,Y498H,disrupting interaction strength
15,G688A,with no effect
16,R703K,with no effect
17,R703E,with no effect
18,R703A,with no effect
19,Q680K,with no effect
20,S721E,with no effect
21,V429K,with no effect
22,V429A,with no effect
23,I679A,with no effect

row,Variant,effect of a mutation on the interaction
1,I702E,with no effect
2,A507K,with no effect
3,M483A,with no effect
4,N651A,with no effect
5,V510K,with no effect
6,N540A,disrupting interaction strength
7,N540K,with no effect
8,P530A,with no effect
9,F423E,with no effect
10,E592A,with no effect
11,L489E,with no effect
12,S704A,with no effect
13,I713E,with no effect
14,F575A,with no effect
15,F575E,with no effect
16,G372E,with no effect
17,L650A,with no effect
18,V598E,with no effect
19,L350A,with no effect
20,R480K,with no effect
21,L593E,with no effect
22,L593K,with no effect
23,F501K,with no effect

row,Variant,effect of a mutation on the interaction
1,F501E,disrupting interaction strength
2,F590E,with no effect
3,F590K,with no effect
4,T395K,with no effect
5,T395E,with no effect
6,A364E,with no effect
7,L328E,with no effect
8,N500K,with no effect
9,N557E,with no effect
10,C662A,with no effect
11,P587A,with no effect
12,V606A,with no effect
13,D700E,with no effect
14,H617E,with no effect
15,L402C,disrupting interaction strength
16,L402E,disrupting interaction strength
17,H604K,with no effect
18,C442K,with no effect
19,L341A,with no effect
20,V471A,disrupting interaction strength
